Data published in publication PMC6456213, “LurR is a regulator of the central lactate oxidation pathway in sulfate-reducing Desulfovibrio species”.

Tests used:
[1] = biological target: T1, LurR (Desulfovibrio vulgaris Hildenborough) (UniProt Q726T3); assay: EMSA; conditions: 10 mM Tris-HCl pH 7.5, 50 mM KCl, 5 mM MgCl2, 1 ug/ml poly dI.dC, 100 fmol biotinylated DNA in 20 ul, room temperature, 20 min
T1 sequence: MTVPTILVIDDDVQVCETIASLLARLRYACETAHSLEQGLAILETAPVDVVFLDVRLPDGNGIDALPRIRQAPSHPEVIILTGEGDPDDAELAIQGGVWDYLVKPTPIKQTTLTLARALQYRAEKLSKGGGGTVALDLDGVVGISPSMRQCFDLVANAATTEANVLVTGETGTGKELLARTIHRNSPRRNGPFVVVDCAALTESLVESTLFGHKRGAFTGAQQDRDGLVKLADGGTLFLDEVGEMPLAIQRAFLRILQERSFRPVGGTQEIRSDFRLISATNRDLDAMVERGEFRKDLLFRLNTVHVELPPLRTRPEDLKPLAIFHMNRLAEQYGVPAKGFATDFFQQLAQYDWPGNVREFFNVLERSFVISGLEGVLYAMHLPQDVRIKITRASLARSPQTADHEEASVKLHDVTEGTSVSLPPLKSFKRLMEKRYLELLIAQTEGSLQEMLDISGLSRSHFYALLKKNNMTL

[2] = biological target: T2, PhoB (Desulfovibrio vulgaris Hildenborough) (UniProt Q72D47); assay: EMSA; conditions: 10 mM Tris-HCl pH 7.5, 50 mM KCl, 5 mM MgCl2, 1 ug/ml poly dI.dC, 100 fmol biotinylated DNA in 20 ul, room temperature, 20 min
T2 sequence: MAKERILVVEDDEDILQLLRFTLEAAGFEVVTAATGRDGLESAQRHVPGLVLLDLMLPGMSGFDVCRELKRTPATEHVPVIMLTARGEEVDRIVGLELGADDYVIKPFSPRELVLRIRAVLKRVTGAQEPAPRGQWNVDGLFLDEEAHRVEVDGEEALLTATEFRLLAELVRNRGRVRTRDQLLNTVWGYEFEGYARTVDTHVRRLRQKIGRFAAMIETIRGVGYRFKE

LurR = biological target: T3, LurR (Desulfovibrio vulgaris Hildenborough, UniProt Q726T3 1-474); assay: EMSA; 0.5-1 pmol LurR; 10 mM Tris-HCl pH 7.5, 50 mM KCl, 5 mM MgCl2, 1 ug/ml poly dI.dC, 100 fmol biotinylated DNA in 20 ul, room temperature, 20 min; conditions: protein: recombinant; chain copies: 2; label: biotin on one strand
T3 sequence: T1 sequence

In the case of “CGAGAAACGACAGCCGGAGGAAAAACCAAGGTTACAGCATAGTTACAGATAACACACCATTGGCACATTTCTTGTTAAACTTGCGGAGTTCGCGCTCTCCGCGCAACGGTCTCGGGCTCGCCCGCAAGCACCGTGAACTCCAGCCTCCGGCCCCCGGCGGCATGCCATTTTCACCACGCGCCCACCACAGGGCAGAAAAAGGAGATCGTAAATGGCCAAG (double strand) [por promoter substrate IV (220 bp)]”, the binding [1] is reported as “no binding” and the binding [2] is reported as “binds”.

In the case of “GTCAGTAGGGTAACGCCACACGAAGTCCGCTTTTCAAGACACGCTACCACGCAACCCCATCCACGAGAAACGACAGCCGGAGGAAAAACCAAGGTTACAGCATAGTTACAGATAACACACCATTGGCACATTTCTTGTTAAACTTGCGGAGTTCGCGCTCTCCGCGCAACGGTCTCGGGCTCGCCCGCAAGCACCGTGAACTCCAGCCTCCGGCCCCCGGCGGCATGCCATTTTCACCACGCGCCCACCACAGGGCAGAAAAAGGAGATCGTAAATGGCCAAG (double strand) [por promoter substrate III (283 bp)]”, the binding [1] is reported as “binds” and the binding [2] is reported as “binds”.

B1: por LurR motif mut oligo (dsDNA)
DNA 1: GCCACACGAACTGCGCTTTTCAATCAACGCTACCAC
DNA 2: GTGGTAGCGTTGATTGAAAAGCGCAGTTCGTGTGGC
B1: no binding (LurR).
